In US8301398 (WALTER AND ELIZA HALL INSTITUTE OF MEDICAL RESEARCH, dated 2012):

B2: IR485 (residues 1-485 of the insulin receptor) with enterokinase cleavage site and c-myc epitope tag (receptor)
chain: HLYPGEVCPGMDIRNNLTRLHELENCSVIEGHLQILLMFKTRPEDFRDLSFPKLIMITDYLLLFRVYGLESLKDLFPNLTVIRGSRLFFNYALVIFEMVHLKELGLYNLMNITRGSVRIEKNNELCYLATIDWSRILDSVEDNHIVLNKDDNEECGDICPGTAKGKTNCPATVINGQFVERCWTHSHCQKVCPTICKSHGCTAEGLCCHSECLGNCSQPDDPTKCVACRNFYLDGRCVETCPPPYYHFQDWRCVNFSFCQDLHHKCKNSRRQGCHQYVIHNNKCIPECPSGYTMNSSNLLCTPCLGPCPKVCHLLEGEKTIDSVTSAQELRGCTVINGSLIINIRGGNNLAAELEANLGLIEEISGYLKIRRSYALVSLSFFRKLRLIRGETLEIGNYSFYALDNQNLRQLWDWSKHNLTTTQGKLFFHYNPKLCLSEIHKMEEVSGTKGRQERNDIALKTNGDKASCENELLKFSYIRTSFDKISDDDDKEQKLISEEDLN
notes: also called IR485/myc; soluble IR485

Key:
[1] = target: B2; experiment: sandwich ELISA, biotinylated 83-7 as developing antibody
[2] = target: the molecule itself; experiment: gel filtration on Superdex 200 HR; monomeric on non-reduced SDS-PAGE
Excerpt: Further purification was effected by gel filtration on Superdex 200 HR (Pharmacia, Sweden) in TBSA, monitored at 280 nm.

B1: anti-insulin receptor monoclonal antibody 83-7 (whole antibody) (antibody, V domains shown)
VH: QVQLKESGPGLVAPSQSLSITCTVSGFPLTAYGVNWVRQPPGKGLEWLGMIWGDGNTDYNSALKSRLSISKDNSKSQVFLKMNSLQTDDTARYYCARDPYGSKPMDYWGQGTSVTVSS
VL: DIVMSQSPSSLVVSVGEKVTMSCKSSQSLLYSSNQKNFLAWYQQKPGQSPKLLIYWASTRESGVPDRFTGSGSGTDFTLTISSVKAEDLAVYYCQQYFRYRTFGGGTKLEIKR
notes: also called Mab 83-7
binding result [1]: binds

B2
binding result [2]: binds
